The results in this text go back to the Immune Epitope Database (IEDB).

One test has as its target HLA-B*15:03. In words: IEDB peptide-MHC binding, purified MHC/competitive/radioactivity; filed as Kd, often an IC50 or EC50 that approximates it; ≥ and ≤ were set here for values at or beyond the usual limits of such assays.
The target of another test is HLA-B*15:17. In words: IEDB peptide-MHC binding, purified MHC/competitive/fluorescence; filed as Kd, often an IC50 or EC50 that approximates it; ≥ and ≤ were set here for values at or beyond the usual limits of such assays. To be noted: source organism: Zaire ebolavirus.
Another test concerns the target HLA-A*69:01. The description is as above. To be noted: source organism: Zaire ebolavirus.
For another test, the target named is HLA-B*46:01. Described as above. The following applies: source organism: Zaire ebolavirus.
Another test has as its target HLA-B*51:01. The description is as above. To be noted: source organism: Zaire ebolavirus.
Another test concerns the target HLA-B*18:01. The test is described as above. The following applies: source organism: Zaire ebolavirus.
Test [1] has as its target HLA-B*15:01. Described as above. To be noted: source organism: Zaire ebolavirus.
The target in another test is HLA-A*26:01. The description is as above. To be noted: source organism: Zaire ebolavirus.
In a further test the target is HLA-B*57:01. The test is described as above. To be noted: source organism: Zaire ebolavirus.
The target in test [2] is HLA-A*02:01. The description is as above. The following applies: source organism: Zaire ebolavirus.
The target of another test is HLA-B*39:01. Described as above. The following applies: source organism: Zaire ebolavirus.
In the next test the target is HLA-B*27:03. The test is described as above. The following applies: source organism: Zaire ebolavirus.
A further test deals with HLA-A*68:02. In words: IEDB peptide-MHC binding, purified MHC/direct/fluorescence; filed as Kd, often an IC50 or EC50 that approximates it; ≥ and ≤ were set here for values at or beyond the usual limits of such assays. The following applies: source organism: Zaire ebolavirus.
In test [3] the target is HLA-A*03:01. Described as above. To be noted: source organism: Zaire ebolavirus.
A further test has as its target HLA-A*02:11. The test is described as above. The following applies: source organism: Zaire ebolavirus.
Test [4] has as its target HLA-A*02:03. Described as above. The following applies: source organism: Zaire ebolavirus.
Another test addresses HLA-A*02:12. The test is described as above. To be noted: source organism: Zaire ebolavirus.
The next test has as its target HLA-A*02:19. The test is described as above. To be noted: source organism: Zaire ebolavirus.
In a further test the target is HLA-A*02:16. The description is as above. The following applies: source organism: Zaire ebolavirus.
Another test has as its target HLA-A*24:03. The description is as above.
Test [5] has as its target HLA-A*03:01. The test is described as follows: IEDB peptide-MHC binding, purified MHC/competitive/fluorescence; ≥ and ≤ were set here for values at or beyond the usual limits of such assays. The following applies: source organism: Vaccinia virus.
Test [6] deals with HLA-A*02:01. The test is described as above. The following applies: source organism: Vaccinia virus.
For another test, the target named is HLA-B*08:01. In words: IEDB peptide-MHC binding, purified MHC/competitive/radioactivity; filed as Kd, often an IC50 or EC50 that approximates it; ≥ and ≤ were set here for values at or beyond the usual limits of such assays. The following applies: source organism: Vaccinia virus WR.
The next test has as its target HLA-A*32:01. Described as above. To be noted: source organism: Vaccinia virus WR.
Test [7] has as its target HLA-B*15:01. Described as above. The following applies: source organism: Vaccinia virus WR.
Another test deals with HLA-A*30:01. The test is described as above. The following applies: source organism: Vaccinia virus WR.
The target of a further test is HLA-A*02:06. Described as above. The following applies: source organism: Vaccinia virus WR.
The target in test [8] is HLA-A*02:03. The test is described as above. To be noted: source organism: Vaccinia virus WR.
Another test deals with HLA-A*02:02. Described as above. To be noted: source organism: Vaccinia virus WR.
Another test concerns the target HLA-A*29:02. In words: IEDB peptide-MHC binding, purified MHC/direct/fluorescence; filed as Kd, often an IC50 or EC50 that approximates it; ≥ and ≤ were set here for values at or beyond the usual limits of such assays. The following applies: source organism: Zaire ebolavirus.
Where [9] appears, read: source organism: Vaccinia virus WR.

Bounds are passed on as bounds.

A word on the Kd: it is a measure of binding affinity in units of concentration. On to AKSQSDTVF, for which the Kd with HLA-B*15:03 (setting [9]) was determined as 0.16 nM.

With FMYFCEQKL, the Kd in the test with HLA-B*15:03 (setting [9]) was 35.7 nM.

Turning to FSMLGIWFF, the Kd in the test with HLA-B*15:03 (source organism: Vaccinia virus Copenhagen) was 28.3 nM.

As for IEVSSDISF, the Kd with HLA-B*15:03 (setting [9]) came out at 9.74 nM.

On to IFLKPDETF, for which the Kd in the test with HLA-B*15:17, with HLA-A*69:01, with HLA-B*46:01, with HLA-B*51:01, in the test with HLA-B*18:01 and with HLA-B*15:01 [1] was at least 20000 nM throughout. For the same sequence, the Kd in the test with HLA-A*26:01, in the test with HLA-B*57:01, in the test with HLA-A*02:01 [2], in the test with HLA-B*39:01, with HLA-B*27:03 and with HLA-A*68:02 was at least 20000 nM in each case. Also, the Kd with HLA-A*03:01 [3], with HLA-A*02:11, with HLA-A*02:03 [4], with HLA-A*02:12, with HLA-A*02:19 and in the test with HLA-A*02:16 was at least 20000 nM throughout. Further, the Kd in the test with HLA-A*24:03 (source organism: Sudan ebolavirus - Maleo (1979)) was 36.6 nM.

KIVMTPSPF: in the test with HLA-B*15:03 (setting [9]), the Kd came to 211 nM.

As to LKSPKRCSF, the Kd with HLA-B*15:03 (setting [9]) came to 2.74 nM.

One may read the IC50 as the concentration needed to halve the response being measured. Higher therefore signals a need for much substance. In the case of LLLQKYPPP, the IC50 in the test with HLA-A*03:01 [5] is at least 416000 nM; with HLA-A*02:01 [6], 34100 nM.

Turning to LMFKHLLHP, the Kd with HLA-B*08:01 stood at 1.04 nM; with HLA-B*15:03 (setting [9]), 25.9 nM; with HLA-A*32:01, 11300 nM; with HLA-B*15:01 [7] it was 103 nM; with HLA-A*30:01, 504 nM.

Consider LMMTLPSIF, for which the Kd in the test with HLA-B*15:03 (setting [9]) amounted to 0.152 nM.

With LQISRVNDL, the Kd in the test with HLA-A*02:06 amounted to 229 nM; with HLA-A*02:03 [8] it was 11.5 nM; with HLA-B*15:03 (setting [9]), 34.4 nM; in the test with HLA-A*02:02, 89.8 nM.

For the sequence LTIACRVSL, the Kd was 731 nM in the test with HLA-B*08:01; 599 nM with HLA-B*15:03 (setting [9]); 95.8 nM with HLA-A*32:01; 75.8 nM in the test with HLA-B*15:01 [7]; 475 nM with HLA-A*30:01.

On to RMFGSKPTF, for which the Kd was 7870 nM with HLA-B*08:01; 0.206 nM with HLA-B*15:03 (setting [9]); 9800 nM in the test with HLA-A*32:01; 7510 nM with HLA-B*15:01 [7]; 6250 nM in the test with HLA-A*30:01.

Take SQTIELIAF: the Kd with HLA-B*15:03 (setting [9]) came to 0.206 nM.

SQVRVPTVF: the Kd with HLA-B*15:17, with HLA-A*69:01, with HLA-B*46:01, with HLA-B*51:01, with HLA-A*26:01 and with HLA-B*57:01 was at least 20000 nM each time. In addition, the dissociation constant Kd in the test with HLA-A*02:01 [2], in the test with HLA-B*39:01, with HLA-B*27:03, in the test with HLA-A*68:02, in the test with HLA-A*03:01 [3] and with HLA-A*29:02 was at least 20000 nM each time. In addition, the Kd with HLA-A*02:11, in the test with HLA-A*02:03 [4], with HLA-A*02:12, with HLA-A*02:19, with HLA-A*02:16 and with HLA-A*24:03 (source organism: Sudan ebolavirus - Uganda (2000)) was at least 20000 nM throughout.

Consider VMSQEDNHF, for which the Kd in the test with HLA-B*15:03 (setting [9]) is 102 nM; with HLA-B*15:01 [7] it was 192 nM.

In the case of YMSSEPIIF, in the test with HLA-B*15:03 (setting [9]), the Kd worked out at 0.304 nM.
